Assay results from the supplement of paper PMC10567573.

B1: UFD1L (parent)
chain: EAGGRFVAFSGEGQSLRKKGRKP
B2: MMP1 (parent)
chain: YTPDLPRADVDHAIEKAFQLWSNV

Variants of: B1
Assay: protein stability index of a GFP-peptide fusion (GPS, HEK-293T) (PSI 1-6); higher = more stable
Details: c terminus: native
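Note: lentivirally expressed fusions sorted by FACS into six bins by GFP to DsRed ratio, PSI derived from sequencing read proportions per bin multiplied by bin number.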

Protein stability index: each site, then its substitutions
Q14: C 3.07, G 2.12, R 2.51, D 1.26, A 1.83, F 2.93, S 2.5, E 1.58
K22: N 2.93, T 1.45, I 2.43
G11: C 2.52, N 1.82
P23: Q 4.65, L 3.73, C 3.15, I 3.95, Y 3.01, S 3.2, M 2.85
R5: F 2.14, N 2.6, E 3.18, L 2.46, P 3.69, S 3.17
S10: P 2.83, Q 3.48, T 1.77, D 2.36, K 1.4, I 1.72
K18: T 1.97, D 2.01, Q 1.87, H 1.24, F 2.3, V 1.39, I 3.76
A2: H 1.15, S 1.82, P 2.55, R 1.1, Y 2.35, I 3, N 1.23
G13: R 1.35, S 1.9, N 1.55, K 2.03, P 2.73, I 1.28, A 2.22
G4: H 2.12, Q 1.92, S 3.12
G3: W 1.67, Q 2.16, E 2.71, L 3.08, P 1.24
F9: R 3.73, Q 2.25, I 1.19, K 1.75, E 4.02, W 2.96, T 2.28
R17: S 2.73, D 3, T 2.03, C 1.48, H 2.2, N 3.46
E12: K 1.69
S15: D 1.87, G 2.42, P 2.16, R 2.45, L 2.95, T 1.84
F6: P 3.15, M 1.81, G 2.2, Q 2.17, A 3.06, H 1.75, K 2.25
L16: C 2.79, M 1.65, P 1.18, V 2.98, S 3.42, T 2.18, R 2.64, Y 2.51, W 1.03
E1: T 2.17, Y 3.86, G 2.5
K19: P 1.07, D 1.74, G 3.02, E 1.58, R 1.68
A8: N 1.41, Q 2.18, T 1.77, I 1.11
G20: Q 3.83, H 3.25, E 2.78, P 4.77, S 2.12, D 2.12, N 1.82
R21: G 5.2, A 4.78, Y 4.7, I 3.99, S 2.83, L 2.88, Q 5.19
V7: F 1.9, G 1.39, L 1.5, N 2.18, Y 1.12

Variants of: B2
Assay: as above
Details: c terminus: a fixed tail appended

Protein stability index, by site and new letter:
N23: Q 1.57, A 2.05, E 2.49, C 1.29, W 1.97, G 2.12, H 1.69, T 2.07, I 2.05, F 2.29, S 2.28, M 2.02, V 2.23, Y 1.43, K 2.28, D 1.86, R 2.01, L 2.1
W21: P 3.4, T 3.42, D 3.88, C 3.03, N 3.36, G 3.01, M 3.03, E 3.74, R 3.25, S 3.25, Q 2.88, Y 2.5, I 2.67, H 3.42, L 3.56, V 3.18, F 2.13, A 3.05, K 3.4
E15: V 1.39, G 2.54, L 2.65, F 2.56, Q 1.46, D 1.58, S 2.19, T 2.46, I 2.53, A 1.46, N 1.97, P 1.93, K 1.32, W 1.83, H 2.09, M 2.46, Y 2.07, R 2.73, C 2.24
L20: S 2.29, M 1.77, T 2.21, G 1.9, W 1.1, D 2.96, H 2.38, P 1.88, Y 1.78, N 2.19, F 2.67, C 1.84, Q 1.59, R 1.99, I 2.16, K 2.9, E 3.55, A 2.17, V 2.76
S22: I 2.04, D 2.59, A 1.78, Y 1.67, F 1.82, H 1.43, M 1.69, V 1.44, C 2.02, R 1.72, E 2.75, N 1.85, Q 1.98, W 1.91, L 2.19, T 1.59, P 1.85, G 1.81, K 2.03
V24: S 1.66, Y 2.63, K 2.5, I 1.79, E 2.16, P 2.43, R 1.53, G 2.37, W 2.39, A 2.06, F 1.83, T 2.29, M 2.29, L 1.65, Q 2.14, H 1.71, N 1.94, D 2.02, C 1.87
Q19: G 1.75, T 3.63, P 1.52, H 1.97, N 2.82, D 2.5, W 1.96, V 2.66, M 1.68, F 2.43, L 1.05, I 2.33, R 2.15, C 3.82, K 1.86, A 1.54, E 1.98, Y 1.87, S 1.7
I14: N 1.88, Y 2.17, M 1.7, K 2.14, Q 2.3, D 1.81, H 1.62, S 1.51, W 1.46, F 2.14, G 2.25, L 1.39, V 2.08, E 1.36, T 1.39, R 2.31, P 2.14
A17: H 2.68, Q 1.82, P 1.43, K 1.44, E 1.84, G 1.93, C 1.83, I 2.15, T 2.54, V 2.38, Y 1.68, R 1.63, D 1.97, W 1.25, M 2, F 1.97, S 2.11, L 1.79, N 1.53
F18: L 1.46, W 1.48, T 2.13, A 1.83, S 1.67, V 2.04, H 3.17, M 2.04, K 2.22, G 2.23, I 2.41, Q 1.73, Y 2.11, P 1.99, R 1.66, D 2.18, C 1.69, E 2.29, N 1.94
K16: A 2.07, P 1.83, T 2.03, Q 1.76, S 2, H 2.06, E 1.76, N 1.52, D 1.71, C 2.02, W 3.17, Y 3.76, V 2.28, I 2.71, G 1.19, F 1.52, M 1.54, R 1.8, L 1.52
